According to the RNAGym collection of RNA variant scans (doi:10.1073/pnas.2313332121):

B1: TPR t1 (parent)
chain: GACCAAUCUGCCCUCAGAGCUCGAGAACAUCUUCGGAUGCAGAGGAGGCAGGCUUCGGUGGCGCGAUAGCGCCAACGUCCUCAACCUCCAAUGCAUCCCACCACAUGAUGAUGCCUGAAGAGCCUUGGUUUUUUG

Variants of: B1
Experiment: polymerase ribozyme fitness, log enrichment relative to wild type (log ratio); higher = more active; in vitro selection for triplet polymerase activity
How it was run: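 A single round of triplicate in vitro selection, including frozen incubation at −7 °C, was applied to PCR-built, transcribed mutant libraries of each subunit of a heterodimeric triplet polymerase ribozyme. Illumina sequencing of input and output libraries retained genotypes with ≥10 input reads and ≥1 read per output. Fitness is the base-2 logarithm of genotype enrichment divided by wild-type enrichment, from inverse-variance-weighted replicate averages.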

Row | Variant | polymerase ribozyme fitness (log ratio)
1 | GACCAAUCUGCCCUCAGAGCUCGAGAACAUCUUCGGAUGCAGAGGAGGCAGGCUUCGGUGGCGCGAUAGCCCCAACGUCCUCAACCUCCAAUGCACCCCACCACAUGAUGAUGCCUGAAGAGCCUUAGUUUUUUG [G71C U96C G127A] | -3.25
2 | GACCAAUCUGCCCUCAGAGCUCGAGAACAUCUUCGGAUGCAGAGGAGGCAGGCUUCGGUGGCGCGAUAGCCCCAACGUCCUCAACCUCCAAUGCAUCCCACCACAAGAUGAUCCCUGAAGAGCCUUGGUUUUUUG [G71C U106A G113C] | -3.53
3 | GACCAAUCUGCCCUCAGAGCUCGAGAACAUCUUCGGAUGCAGAGGAGGCAGGCUUCGGUGGCGCGAUAGCCCCAACGUCCUCAACCUCCAAUGCAUCCCACCACAUGAUGAAGCCUGAAGAGCCUUGGUUUUAUG [G71C U112A U133A] | 0.204
4 | GACCAAUCUGCCCUCAGAGCUCGAGAACAUCUUCGGAUGCAGAGGAGGCAGGCUUCGGUGGCGCGAUAGCCCCAACGUCCUCAACCUCCAAUGCAUCCCACCACAUGAUGAUGCCUGAAGAGCCUUGGUAUUUUG [G71C U130A] | -1.3
5 | GACCAAUCUGCCCUCAGAGCUCGAGAACAUCUUCGGAUGCAGAGGAGGCAGGCUUCGGUGGCGCGAUAGCUCCAACGUCCUCGACCUCCACUGCACCCCACCACAUGAUAAUGCCUGAAGAGCCUUGGUUUUUUG [G71U A83G A91C U96C G110A] | -6.02
6 | GACCAAUCUGCCCUCAGAGCUCGAGAACAUCUUCGGAUGCAGAGGAGGCAGGCUUCGGUGGCGCGAUAGCUCCAACGUCCUCAACCUCCUAUGCAUCCCACCACAUGAUGAUGCCUGAAGAGCCUUGGUUUUUUG [G71U A90U] | -1.78
7 | GACCAAUCUGCCCUCAGAGCUCGAGAACAUCUUCGGAUGCAGAGGAGGCAGGCUUCGGUGGCGCGAUAGCUCCAACGUCCUCAACCUCCAGUUCAUCCCACCACAUGAUGAUGCCUGAAGAGCCUUGGUUUUUUG [G71U A91G G93U] | -2.17
8 | GACCAAUCUGCCCUCAGAGCUCGAGAACAUCUUCGGAUGCAGAGGAGGCAGGCUUCGGUGGCGCGAUAGCUCCAACGUCCUCAACCUCCAUUGCAUCCCACCACAUGAUGAUGCCUGAAGAGCCUUGGUUUCUUG [G71U A91U U132C] | -2.4
9 | GACCAAUCUGCCCUCAGAGCUCGAGAACAUCUUCGGAUGCAGAGGAGGCAGGCUUCGGUGGCGCGAUAGCUCCAACGUCCUCAACCUCCAAUGCAUCCCACCACCUGAUGAUGCCUGAAGAGCCUUGGUUUUUUG [G71U A105C] | -2.99
10 | GACCAAUCUGCCCUCAGAGCUCGAGAACAUCUUCGGAUGCAGAGGAGGCAGGCUUCGGUGGCGCGAUAGCUCGAACGUCCUCAACCUCCUAUGCAUCCCACCACAUGAUGAUGUCUGAAGAGCCUUGGUUUUUUG [G71U C73G A90U C114U] | -7.06
11 | GACCAAUCUGCCCUCAGAGCUCGAGAACAUCUUCGGAUGCAGAGGAGGCAGGCUUCGGUGGCGCGAUAGCUCCAAAGUCCUCAACCUCCAAUGCAUCCCACCACAUGAUGAUGCCUGAAGAGCCUUGGUUUUUUG [G71U C76A] | -5.51
12 | GACCAAUCUGCCCUCAGAGCUCGAGAACAUCUUCGGAUGCAGAGGAGGCAGGCUUCGGUGGCGCGAUAGCUCCAACGUUCUCAACCUCCAAUGCAUCCCACCACAUGAUGAUGCCUGAAGAGCCUUGGUUUUUUG [G71U C79U] | -0.201
13 | GACCAAUCUGCCCUCAGAGCUCGAGAACAUCUUCGGAUGCAGAGGAGGCAGGCUUCGGUGGCGCGAUAGCUCCAACGUCCUAAACCUCCAAUGCAUCCCACCACAUGAUGAUGCCAGAAGAGCCUUGGUUUUUUG [G71U C82A U116A] | -4.01
14 | GACCAAUCUGCCCUCAGAGCUCGAGAACAUCUUCGGAUGCAGAGGAGGCAGGCUUCGGUGGCGCGAUAGCUCCAACGUCCUGAACCUCCAAUGCAUCCCACCACAUGAUGAUGCCUGAAGAGCCUUGGUUUUUUG [G71U C82G] | -1.17
15 | GACCAAUCUGCCCUCAGAGCUCGAGAACAUCUUCGGAUGCAGAGGAGGCAGGCUUCGGUGGCGCGAUAGCUCCAACGUCCUCAACCUUCAAUGCAUCCCCCCACAGGAUGAUGCCUGAAGAGCCUUGGUUUUUUG [G71U C88U A100C U106G] | -5.6
16 | GACCAAUCUGCCCUCAGAGCUCGAGAACAUCUUCGGAUGCAGAGGAGGCAGGCUUCGGUGGCGCGAUAGCUCCAACGUCCUCAACCUUCAAUGCAUCCCACCACAUGAUGAUGCCUGAAGAGCCUUGGUGGUUUG [G71U C88U U130G U131G] | -2.2
17 | GACCAAUCUGCCCUCAGAGCUCGAGAACAUCUUCGGAUGCAGAGGAGGCAGGCUUCGGUGGCGCGAUAGCUCCAACGUCCUCAACCUCGAAUGCAUCCCACCACAUGAUGAUGCCUGAAGAGCCUUGGUUUUUUG [G71U C89G] | -1.88
18 | GACCAAUCUGCCCUCAGAGCUCGAGAACAUCUUCGGAUGCAGAGGAGGCAGGCUUCGGUGGCGCGAUAGCUCCAACGUCCUCAACCUCCAAUGCAUCCUACCACAUGAUGAUGCCUGAAGAGCCUUGGUUUUUUG [G71U C99U] | -4.69
19 | GACCAAUCUGCCCUCAGAGCUCGAGAACAUCUUCGGAUGCAGAGGAGGCAGGCUUCGGUGGCGCGAUAGCUCCAACGUCCUCAACCUCCAAUGCAUCCCAACACAUGAUGAUGCCUGAAGAGCCUUGGUUUUUUG [G71U C101A] | -1.24
20 | GACCAAUCUGCCCUCAGAGCUCGAGAACAUCUUCGGAUGCAGAGGAGGCAGGCUUCGGUGGCGCGAUAGCUCCAACGUCCUCAACCUCCAAUGCAUCCCAGCACAUGAUGAUGCCUGAAGAGCCUUGGUUUUUUG [G71U C101G] | -1.83
21 | GACCAAUCUGCCCUCAGAGCUCGAGAACAUCUUCGGAUGCAGAGGAGGCAGGCUUCGGUGGCGCGAUAGCUCCAACGUCCUCAACCUCCAAUGCAUCCCAGCACAGGAUGAUGCCUGAAGAGCCUUGGUUUUUUG [G71U C101G U106G] | -3.61

Row | Variant | polymerase ribozyme fitness (log ratio)
22 | GACCAAUCUGCCCUCAGAGCUCGAGAACAUCUUCGGAUGCAGAGGAGGCAGGCUUCGGUGGCGCGAUAGCUCCAACGUCCUCAACCUCCAAUGCAUCCCAUCACAUGAUGAUGCCUGAAGAGCCUUGGUUUUUUG [G71U C101U] | -0.379
23 | GACCAAUCUGCCCUCAGAGCUCGAGAACAUCUUCGGAUGCAGAGGAGGCAGGCUUCGGUGGCGCGAUAGCUCCAACGUCCUCAACCUCCAAUGCAUCCCACCAAAUGAUGAUGCCUGAAGAGCCUUGGUUUUUUG [G71U C104A] | -1.81
24 | GACCAAUCUGCCCUCAGAGCUCGAGAACAUCUUCGGAUGCAGAGGAGGCAGGCUUCGGUGGCGCGAUAGCUCCAACGUCCUCAACCUCCAAUGCAUCCCACCACAUGAUGAUGCUUGAAGAGCCUUGGUUUUUUG [G71U C115U] | -1.41
25 | GACCAAUCUGCCCUCAGAGCUCGAGAACAUCUUCGGAUGCAGAGGAGGCAGGCUUCGGUGGCGCGAUAGCUCCAACGUCCUCAACCUCCAAUGCAUCCCACCACAUGAUGAUGCCUGAAGAGCGUUGGUUUUUUG [G71U C124G] | 1.72
26 | GACCAAUCUGCCCUCAGAGCUCGAGAACAUCUUCGGAUGCAGAGGAGGCAGGCUUCGGUGGCGCGAUAGCUCCAACGUCCUCAACCUCCAAUGCAUCCCACCACAUGAUGAUGCCUGAAGAGCGUCGGUUUUUUG [G71U C124G U126C] | 2.04
27 | GACCAAUCUGCCCUCAGAGCUCGAGAACAUCUUCGGAUGCAGAGGAGGCAGGCUUCGGUGGCGCGAUAGCUCCAACGUCCUCAACCUCCAAUGCAUCCCACCACAUGAUGAUGCCUAAAGAGCCUUGGUCUUUUG [G71U G117A U130C] | -1.71
28 | GACCAAUCUGCCCUCAGAGCUCGAGAACAUCUUCGGAUGCAGAGGAGGCAGGCUUCGGUGGCGCGAUAGCUCCAACGUCCUCAACCUCCAAUGCAUCCCACCACAUGAUGAUGCCUGAAGAACCUUGGUUUUUUG [G71U G122A] | -0.705
29 | GACCAAUCUGCCCUCAGAGCUCGAGAACAUCUUCGGAUGCAGAGGAGGCAGGCUUCGGUGGCGCGAUAGCUCCAACGUCCUCAACCUCCAAUGCAUCCCACCACAUGAUGAUGCCUGAAGAGCCUUUGUUUUUUG [G71U G127U] | -1.02
30 | GACCAAUCUGCCCUCAGAGCUCGAGAACAUCUUCGGAUGCAGAGGAGGCAGGCUUCGGUGGCGCGAUAGCUCCAACGUCCCCAACCUCCAAUACAUCCCACCACAUGAUGAUGCCUGAAAAGCCUUGGUUUUUUG [G71U U81C G93A G120A] | -0.964
31 | GACCAAUCUGCCCUCAGAGCUCGAGAACAUCUUCGGAUGCAGAGGAGGCAGGCUUCGGUGGCGCGAUAGCUCCAACGUCCUCAACCACCAAUGCAUCCCACCACAUGAUGAUGCCUGAAGAGCCUUGGUUUUUUG [G71U U87A] | -1.3
32 | GACCAAUCUGCCCUCAGAGCUCGAGAACAUCUUCGGAUGCAGAGGAGGCAGGCUUCGGUGGCGCGAUAGCUCCAACGUCCUCAACCGCCAAUGCAUCCCACCACAUGAUGAUGCCUGAAGAGCCUUGGUUUUUUG [G71U U87G] | -0.424
33 | GACCAAUCUGCCCUCAGAGCUCGAGAACAUCUUCGGAUGCAGAGGAGGCAGGCUUCGGUGGCGCGAUAGCUCCAACGUCCUCAACCUCCAAUGCAUCCCACCACAUGAUGAAGCCUGAAGAGCCUUGGUUUUUUG [G71U U112A] | 1.49
34 | GACCAAUCUGCCCUCAGAGCUCGAGAACAUCUUCGGAUGCAGAGGAGGCAGGCUUCGGUGGCGCGAUAGCUCCAACGUCCUCAACCUCCAAUGCAUCCCACCACAUGAUGAUGCCUGAAGAGCCUGGGUUUUUUG [G71U U126G] | -2.34
35 | GACCAAUCUGCCCUCAGAGCUCGAGAACAUCUUCGGAUGCAGAGGAGGCAGGCUUCGGUGGCGCGAUAGCUCCAACGUCCUCAACCUCCAAUGCAUCCCACCACAUGAUGAUGCCUGAAGAGCCUUGGUUAUUUG [G71U U131A] | 0.00469
36 | GACCAAUCUGCCCUCAGAGCUCGAGAACAUCUUCGGAUGCAGAGGAGGCAGGCUUCGGUGGCGCGAUAGCUCCAACGUCCUCAACCUCCAAUGCAUCCCACCACAUGAUGAUGCCUGAAGAGCCUUGGUUUCUUG [G71U U132C] | -0.492
37 | GACCAAUCUGCCCUCAGAGCUCGAGAACAUCUUCGGAUGCAGAGGAGGCAGGCUUCGGUGGCGCGAUAGCUCCAACGUCCUCAACCUCCAAUGCAUCCCACCACAUGAUGAUGCCUGAAGAGCCUUGGUUUUAUG [G71U U133A] | -0.757
38 | GACCAAUCUGCCCUCAGAGCUCGAGAACAUCUUCGGAUGCAGAGGAGGCAGGCUUCGGUGGCGCGAUAGCGACACCGUCCUCAACCUCCAAUGCAUCCCACCACAUGAUGAUGCCUGAAGAGCCUUGGUUUUUUG [C72A A75C] | -0.344
39 | GACCAAUCUGCCCUCAGAGCUCGAGAACAUCUUCGGAUGCAGAGGAGGCAGGCUUCGGUGGCGCGAUAGCGACAACGUCCUCCACCUCCAAUGCAACCCACCACAUGAUAAUGCCUGAAGAGCCUUGGUUUUUUG [C72A A83C U96A G110A] | -2.24
40 | GACCAAUCUGCCCUCAGAGCUCGAGAACAUCUUCGGAUGCAGAGGAGGCAGGCUUCGGUGGCGCGAUAGCGACAACGUCCUCGACCUCCAAUGCAUCCCACCACAUGAUGAUGCCUGAAGAGCCUUGGUUUUUUG [C72A A83G] | -0.951
41 | GACCAAUCUGCCCUCAGAGCUCGAGAACAUCUUCGGAUGCAGAGGAGGCAGGCUUCGGUGGCGCGAUAGCGACAACGUCCUCAACCUCCACUGCAUCCCACCACAUGAUGAUGCCUGAAGAGCCUUAGUUUUUUG [C72A A91C G127A] | -2.21
42 | GACCAAUCUGCCCUCAGAGCUCGAGAACAUCUUCGGAUGCAGAGGAGGCAGGCUUCGGUGGCGCGAUAGCGACAACGUCCUCAACCUCCAAUGCAUCCCCCCACAUGAUGAUGCCUGAAAAGCCUUGGUUUUUUG [C72A A100C G120A] | -0.61
